Data taken from US20230066984A1, “New Carbon Glycoside Glycosyltransferase and Use Thereof” (CAS Center for Excellence in Molecular Plant Sciences, priority 2020, published 2023).
Substitutions are numbered along the chain they refer to.

B1: SbCGT2: C-glycosyltransferase from Sorghum, SEQ ID NO: 7 (protein)
chain: MAPSAMPASGDHTGATPHVVLLPSAGMGHLVPFARLAVALSEGHGCDVSFAAVLPTVSSAESRHLRALFAAAPAVRRLDFRLAPFDESQFPGADPFFLRFEALRRSAPLLGPLLDAAQASALVTDIVLASVVLPVAKARGVPCYVLFTSSAAMLSLCAYFPAHLDANAAAGGGRLGVGDVDIPGVYRIPKSSVPQALHDPKHLFTQQFVANGRGLVAADGILVNTFDAFEPDAITALRQGSVVSDFPPVFAVGPLQPVRFQVAEKPAHYMRWLSAQPARSVVYVSFGSRKAISTDQLRELAAGLEASGQRFLWVVKSTVVDRDDAADLADLLGDGFLERVQGRAFVTKGWVEQEEILQHGSVGLFISHCGWNSVTEAAAFGVPVLAWPRFGDQRVNAAVVARGGLGAWEERWTWDGEKGLVTGEEVAEKINAVVGNDVVARKAARVGDAAAAAAGKGGTSYQSLADFVGRCRDAGW
modifications: Sorghum bicolor
B2: TaCGT1-A: C-glycosyltransferase from wheat, SEQ ID NO: 8 (protein, listed as Triticum aestivum)
chain: MPTSGDGPTSQPHVVLLPSAGMGHLVPFSRLAVALSSAHGCDVSLVTVLPTVSSAESSHLEALFGAFPAVRRLEFHLADFDASEFPNADPFFLRFEAMRRSAPLLLGPLLARASATALVTDIALSSVVIPVAKQLRLPCYVLFTASAAMLSLCVHFPAYLDANGNGLVGDVDIPGVYQIPKASVPQALHDPKHLFTRQFVANGRELAKSDGVLVNSFDAFEPEAIAALREGAVSAAGFFPPVFSVGPLAPVSFPAGNNNRADYIQWLEAQPARSVVYVSFGSRKAVARDQLRELAAGLEASGHRFLWVVKSTVVDRDDDADLGELLGEGFLERVQGRGMVTKGWVEQEDVLKQESVGLFISHCGWNSVTEAAAGGLPVLAWPRFGDQRVNAGVVARSGLGVWVDSWSWEGEEGVVSGESIAEKVKAVMGDEIARNKAVSVRDAAAKAVADGGTSYRNLARFAQRCRDGRVRE
B3: Phyllostachys edulis (moso bamboo) C-glycosyltransferase PhCGT1, SEQ ID NO: 1 (Phyllostachys edulis) (protein)
chain: MPTSGGRTGDRPHVILLPSAGMGHLVPFSRLAVALSSGHGCDVSVVAVLPTVSAAESRHLQGLLDASPAVRRLDLHLAPFDESEFPGADPFFLRFEAMRRSAPLLGPLLADTGASALVTDIALASVVIPVAKEIHLPCYVLFTASAAMLSFCAYFPTYLDTNAGRVVGDVDIPGVYRIPKASIPQALHDPNHLFTRQFVANGQDLAKADGVLVNTFDALELEAVTALRQGSVAAGFPPVFSVGPLVTVNLPAGEAAKESGNDYMYWLDAQPAQSVVYVSFGSRKAISRDQVRELAIGLEASGQPFLWVVKSTVVDRDDSAELSELLGEGFLERVQGQGFVTKAWVEQEEVLKHESIGLFISHCGWNSVTEAAASGVPVLAWPRFGDQRVNAGVVARGGLGVWVERWSWEGEEDVVSGEEIAEKVKAVMADETVRKKAASVGEAAVKEFADGGTSYRSLTEFVRRCRDLAVLD
notes: pET28a (pCZ86), E. coli BL21(DE3) in fermentation; A1 assay uses crude enzyme supernatant
B4: Phyllostachys glauca (henon bamboo) C-glycosyltransferase PgCGT1, SEQ ID NO: 2 (Phyllostachys glauca) (protein)
chain: B3 chain with G6S, D10G, Q273R, D289N, I296V, P304R, G327D, Q337R, F339L, D413G
notes: A1 assay uses crude enzyme supernatant
B5: TaCGT1-B: C-glycosyltransferase from wheat, SEQ ID NO: 9 (protein, listed as Triticum aestivum)
chain: MPTSGDGSGALPHVVLLPSAGMGHLVPFSRLAVSFSSSDHGCGVSVVTVLPTVSSAESAHLDALFGACPAVRRLDFHLARFDASEFPGADPFFLRFEAMRRSAPLLGPLLAGAGASALVTDIALASVVIPVARELRLPCYVLFTASAAMLSLCVHFPAYLDANAGGPVGDVDIPGVYRVPKASIPQALHHPEHLFTRQFVANGRELAKSDGLLVNSFDEFEPEAISALRDGSVAAGFPPVFSVGPLAPVSFSAGEPPENQADYMRWLEAQPTRSVVYVSFGSRKAISKDQLKELAVGLEASGHRFLWVVKSTVVDREDEAELSELLGEGFLERVHGRGMVTKGWVEQEEVLKQESIGLFISHCGWNSVTEAAANGLPVLAWPRFGDQRVNAGVVARSGLGVWEERWSWEGEEGVVSGENIAEKVKAVMADETVRNKAVSVQDAAAKAVADGGTSYRSLAQFVQRCRDLSVSK

Assays:
[1] = In vitro functional identification of C-glycosyltransferases by HPLC, phloretin as glycosyl receptor; type: biochemical; conditions: 0.1 mM phloretin, 0.3 mM UDP glucose, crude enzyme, 37° C., 2 h, HPLC (FIG. 1A)
Method: The recombinant plasmid was transformed into competent cells of Escherichia coli BL21 (DE3), and cultured overnight at 37° C. in solid LB medium (kanamycin 50 μg/mL). Single colony was transferred to a 2 mL LB liquid medium (containing 50 μg/ml kanamycin) and incubated overnight. The bacterial fluid was transferred to a new 100 ml LB liquid medium with antibiotics and incubated at 37° C. and 250 r/min until OD600 reached 0.5-0.6. The culture was cooled down to 16° C. in a water bath. Then inducer IPTG was added at a final concentration of 0.1 mM. The mixture was cultured at 16° C. for low temperature induction and 180 r/min for 20 h. The BL21(DE3) recombinant strain carrying the pET28a empty plasmid was used as a blank control, and the culture operation was the same as above. The bacteria were harvested by centrifugation (6000 r/min, 5 min), re-suspended in 1 mL of lysis buffer Buffer A (20 mM Tris-HCl, pH 8.0; 100 mM NaCl), and DNase was added to a final concentration of 5 μg/mL, Mg^2+ to a final concentration of 2 mM; protease inhibitor PMSF to a final concentration of 1 mM; the bacteria were incubated on ice for 30 min and then sonicated; refrigerated centrifugation (10,000 rpm, 30 min, 4° C.), filtered through a 0.2 µm filter membrane to obtain the supernatant crude enzyme solution, and added 20% glycerol for cryopreservation (−20° C.).
(§1) The in vitro enzyme catalytic assay system is 100 μL. The reaction system includes: 0.1 mM glycosyl receptor (phloretin or 2-hydroxynaringenin), 0.3 mM UDP glucose, 25 μL supernatant crude enzyme solution, and Buffer A is used to make up the volume to 100 μL, and react at 37° C. for 2 h. After the reaction was completed, an equal volume of methanol was added to terminate the reaction, and HPLC was used for product analysis. HPLC detection conditions: chromatographic column: reverse phase C18 column [SilGreen ODS column (ø 4.6×250 mm)], detection wavelength 280 nm; mobile phase: acetonitrile (0.1% formic acid)-water (0.1% formic acid) mixture gradient elution, with increased ratio from 5:95 to 100:0 within 0 to 20 min, and the flow rate was 1 mL/min.

[2] = substrate: O=C1C[C@@](O)(c2ccc(O)cc2)Oc2cc(O)cc(O)c21; test: in vitro kinetic parameters of C-glycosyltransferase PhCGT1 with 2-hydroxynaringenin (FIG. 5); type: biochemical; conditions: other: PhCGT1; substrate 2-hydroxynaringenin; 37.0 °C
Method: as §1
(§2) The Km value is the substrate concentration when the enzymatic reaction presents half of its maximum reaction rate, and the lower the Km value, the higher the enzymatic activity of the C-glycosyltransferase.

[3] = substrate: O=C1C[C@@](O)(c2ccc(O)cc2)Oc2cc(O)cc(O)c21; test: in vitro kinetic parameters of C-glycosyltransferase PgCGT1 with 2-hydroxynaringenin (FIG. 5); type: biochemical, henon bamboo (Phyllostachys glauca); conditions: other: PgCGT1; substrate 2-hydroxynaringenin; 37.0 °C
Method: as §1, §2

| Molecule | conversion of substrate phloretin to C-glycosylated product (Nothofagin) [1] | 5′ C-glycosylation of 3′-glycosylated phloretin giving phloretin-3′,5′-C-diglucoside [1] | Km [2] [µM] | Km [3] [µM] |
| --- | --- | --- | --- | --- |
| B1 | can convert the substrate phloretin to a product having a shorter retention time |  |  |  |
| B2 | can convert the substrate phloretin to a product having a shorter retention time | can catalyze the glycosylation of the 3′-glycosylated phloretin at the 5′ position |  |  |
| B3 | can convert the substrate phloretin to a product having a shorter retention time |  | 1.75 ± 0.66 |  |
| B4 | can convert the substrate phloretin to a product having a shorter retention time |  |  | 2.75 ± 0.75 |
| B5 | can convert the substrate phloretin to a product having a shorter retention time |  |  |  |
